Assay results from paper PMC9294072.
Where two headings read alike, the source gives them in different places.

Tests used:
[1] = target: human N-terminal acetyltransferase D (hNatD) (human) (UniProt Q86UY6)
[2] = target: human N-terminal acetyltransferase D (hNatD) (human) (UniProt Q86UY6); remark: listed apart in the source
[3] = target: human N-terminal acetyltransferase D (hNatD) (human) (UniProt Q86UY6); remark: listed apart in the source

| kcat/Km of Nα-acetylation by hNatD (continuous fluorescence assay) [1] | kcat/Km of Nα-acetylation by hNatD (continuous fluorescence assay) [2] | Substance | also measured |
| --- | --- | --- | --- |
| 483 M⁻¹ s⁻¹ |  | oncohistone H4/H2A pentapeptide G4D (from UniProt P62805 2-6) |  |
|  | 157 M⁻¹ s⁻¹ | oncohistone H4/H2A pentapeptide R3Q (from UniProt P62805 2-6) |  |
|  | 4830 M⁻¹ s⁻¹ | oncohistone H4/H2A pentapeptide R3H (from UniProt P62805 2-6) |  |
| 3500 M⁻¹ s⁻¹ |  | oncohistone H4/H2A pentapeptide G4V (from UniProt P62805 2-6) |  |
|  |  | oncohistone H4/H2A pentapeptide S1L (from UniProt P62805 2-6) | kcat/Km of Nα-acetylation by hNatD (continuous fluorescence assay) [3]: 4.17 M⁻¹ s⁻¹ |
|  |  | oncohistone H4/H2A pentapeptide R3C (SGCGK) | kcat/Km of Nα-acetylation by hNatD (MALDI-MS assay) [2]: 1830 M⁻¹ s⁻¹ |
